Experimental findings from patent US20190330625A1, “CONSEQUENCES OF A DEFECTIVE SWITCH IN CUTANEOUS SQUAMOUS CELL CARCINOMA” (AGENCY FOR SCIENCE, TECHNOLOGY AND RESEARCH, published 2019) are described below.

For one data set, the target named is T1, Wnt7a (UniProt O00755 32-349, limits assumed).
T1 construct: Endogenous protein of the A253 (HNSCC) cell lysate
T1 sequence (looked up): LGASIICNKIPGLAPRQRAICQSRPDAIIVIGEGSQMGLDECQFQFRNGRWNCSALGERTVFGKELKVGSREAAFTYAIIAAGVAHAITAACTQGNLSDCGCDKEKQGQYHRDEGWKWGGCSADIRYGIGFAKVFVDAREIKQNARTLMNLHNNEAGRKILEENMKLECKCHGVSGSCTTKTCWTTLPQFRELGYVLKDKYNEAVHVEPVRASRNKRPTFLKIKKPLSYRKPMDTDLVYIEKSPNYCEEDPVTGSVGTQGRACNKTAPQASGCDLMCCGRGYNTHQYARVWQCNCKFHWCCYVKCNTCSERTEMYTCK
Nature of the data set: co-IP with anti-FSTL1 antibody or IgG control from A253 lysate, western blot for Wnt7a. (In western blotting, separated proteins are transferred to a membrane and probed.)

The target of the next data set is HuR (ELAVL1) (UniProt Q15717 Q15717:1-326). The data set is described as follows: EMSA; 0.2-0.6 uM HuR; 30 mM Tris pH 7.4, 5 mM MgCl2, 50 mM KCl, yeast tRNA, room temperature; sequence listed as DNA, assayed as RNA transcript. Particulars: pre-miRNA hairpin.
HuR (ELAVL1), sequence (Q15717 whole entry, one chain of several): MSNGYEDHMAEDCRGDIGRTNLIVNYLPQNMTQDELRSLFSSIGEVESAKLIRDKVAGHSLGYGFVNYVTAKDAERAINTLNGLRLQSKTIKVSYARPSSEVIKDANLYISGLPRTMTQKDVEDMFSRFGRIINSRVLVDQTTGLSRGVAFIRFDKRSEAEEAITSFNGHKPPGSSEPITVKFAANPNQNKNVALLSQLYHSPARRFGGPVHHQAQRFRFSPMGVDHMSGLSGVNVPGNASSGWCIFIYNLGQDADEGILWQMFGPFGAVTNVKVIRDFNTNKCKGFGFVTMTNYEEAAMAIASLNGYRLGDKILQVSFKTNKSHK

Method for HuR (ELAVL1): After 30 minutes at room temperature, reaction products were resolved through 6% native polyacrylamide gel electrophoresis. […] The resulting gel was dried and the protein RNA complex and unbound RNA were visualized by phosphor-imaging.

B1: Follistatin-related protein 1 (FSTL1) (other)
chain: EEELRSKSKICANVFCGAGRECAVTEKGEPTCLCIEQCKPHKRPVCGSNGKTYLNHCELHRDACLTGSKIQVDYDGHCKEKKSVSPSASPVVCYQSNRDELRRRIIQWLEAEIIPDGWFSKGSNYSEILDKYFKNFDNGDSRLDSSEFLKFVEQNETAINITTYPDQENNKLLRGLCVDALIELSDENADWKLSFQEFLKCLNPSFNPPEKKCALEDETYADGAETEVDCNRCVCACGNWVCTAMTCDGKNQKGAQTQTEEEMTRYVQELQKHQETAEKTKRVSTKEI
notes: Endogenous secreted glycoprotein in A253 cell lysates, pulled down with the anti-FSTL1 antibody; also called follistatin-like-1
B1: the binding result with Wnt7a was “binds”.

B2: pre-miR-198 WT (ssRNA)
RNA: UCAUUGGUCCAGAGGGGAGAUAGGUUCCUGUGAUUUUUCCUUCUUCUCUAUAGAAUAAAUGA
Take B2: the binding result in the data set with HuR (ELAVL1) was “binds”.
